Test [1] deals with T1, human CDH6 (full-length, on cells) (human, UniProt P55285 54-790).
T1 construct: also called hCDH6; full-length hCDH6
T1 sequence: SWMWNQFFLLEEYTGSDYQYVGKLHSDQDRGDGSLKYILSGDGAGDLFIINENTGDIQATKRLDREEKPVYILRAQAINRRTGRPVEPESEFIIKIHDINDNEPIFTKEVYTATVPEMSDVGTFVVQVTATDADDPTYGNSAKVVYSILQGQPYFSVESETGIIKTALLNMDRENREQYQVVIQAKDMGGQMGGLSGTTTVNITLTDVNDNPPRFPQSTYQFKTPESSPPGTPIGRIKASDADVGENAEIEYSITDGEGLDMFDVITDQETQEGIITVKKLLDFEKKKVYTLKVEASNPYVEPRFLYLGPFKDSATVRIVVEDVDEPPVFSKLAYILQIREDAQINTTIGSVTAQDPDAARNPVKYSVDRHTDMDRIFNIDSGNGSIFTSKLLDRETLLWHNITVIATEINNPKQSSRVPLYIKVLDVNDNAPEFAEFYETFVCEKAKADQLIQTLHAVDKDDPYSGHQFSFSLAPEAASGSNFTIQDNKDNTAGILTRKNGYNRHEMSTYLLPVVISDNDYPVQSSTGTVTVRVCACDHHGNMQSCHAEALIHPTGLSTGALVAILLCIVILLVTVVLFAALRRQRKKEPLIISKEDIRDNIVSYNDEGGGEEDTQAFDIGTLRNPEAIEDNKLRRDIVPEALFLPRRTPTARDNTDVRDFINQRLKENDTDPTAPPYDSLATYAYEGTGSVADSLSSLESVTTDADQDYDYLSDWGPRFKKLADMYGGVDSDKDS
The experiment in a line: flow cytometry, 293T cells transiently transfected with pcDNA3.1-hCDH6 (open) against untransfected 293T cells (shaded), antibody 10 ng/mL, anti-rat IgG-FITC. As to the method: The human CDH6-binding activity of the rat anti-CDH6 antibody produced in Example 1)-7 was evaluated by flow cytometry. […] The cells were cultured overnight under conditions of 37° C. and 5% C02, treated with TrypLE Express (Thermo Fisher Scientific Inc.), and thereafter, a cell suspension was prepared. […] Thereafter, the cells were suspended by the addition of the rat anti-CDH6 monoclonal antibody (clone No: rG019), which had been prepared in Example 1)-7, or rat IgG control (R&D Systems, Inc.) (final concentration: 10 ng/mL). The cells were left standing at 4° C. for 1 hour. The cells were washed twice with PBS supplemented with 5% FBS, and then suspended by the addition of Anti-Rat IgG (whole molecule)-FITC antibody produced in rabbit (Sigma-Aldrich Co. LLC) that had been 50-fold diluted with PBS supplemented with 5% FBS. The cells were left standing at 4° C. for 1 hour. The cells were washed twice with PBS supplemented with 5% FBS, followed by detection using a flow cytometer (FC500; Beckman Coulter, Inc.). The data was analyzed using FlowJo (TreeStar, Inc.). In the histogram of FIG. 1, the abscissa depicts FITC fluorescence intensity indicating the amount of the antibody bound, and the ordinate depicts a cell count. […] The rat IgG control binds to neither of the cells.
For orientation: A flow cytometer gives signals particle by particle.

The target of test [2] is T2, EC3-deleted human CDH6 (EC3 deletion mutant, on cells) (human, UniProt P55285 54-790).
T2 construct: Full-length human CDH6 lacking EC3; Cloned in p3xFLAG-CMV-9; also called EC3-deleted hCDH6
T2 sequence: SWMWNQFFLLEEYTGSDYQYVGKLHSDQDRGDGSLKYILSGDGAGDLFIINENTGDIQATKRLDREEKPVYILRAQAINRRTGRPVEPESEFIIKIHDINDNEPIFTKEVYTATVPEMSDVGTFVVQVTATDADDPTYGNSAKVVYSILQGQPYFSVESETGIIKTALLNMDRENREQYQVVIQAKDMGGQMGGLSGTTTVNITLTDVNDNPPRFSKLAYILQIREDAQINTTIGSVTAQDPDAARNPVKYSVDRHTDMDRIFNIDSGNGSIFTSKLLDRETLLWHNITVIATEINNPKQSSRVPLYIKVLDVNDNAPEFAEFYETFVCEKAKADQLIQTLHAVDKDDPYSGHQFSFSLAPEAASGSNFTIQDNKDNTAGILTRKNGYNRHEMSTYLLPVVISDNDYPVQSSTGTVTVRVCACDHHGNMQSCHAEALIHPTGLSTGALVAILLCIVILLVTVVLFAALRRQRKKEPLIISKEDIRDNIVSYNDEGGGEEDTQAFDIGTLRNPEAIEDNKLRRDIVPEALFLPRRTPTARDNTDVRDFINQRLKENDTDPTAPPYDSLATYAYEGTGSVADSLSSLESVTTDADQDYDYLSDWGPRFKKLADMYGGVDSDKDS
The experiment in a line: flow cytometry, 293α cells transiently expressing EC3-deleted hCDH6 (open) against untransfected cells (shaded), anti-rat IgG-FITC [4]. How it is done:
The cells were cultured overnight under conditions of 37° C. and 5% CO₂, treated with TrypLE Express (Thermo Fisher Scientific Inc.), and thereafter, a cell suspension was prepared. […] Thereafter, the cells were suspended by the addition of the anti-CDH6 monoclonal antibody (clone No: rG019), which had been prepared in Example 1)-7, or rat IgG control (R&D Systems, Inc.) (final concentration: 20 nM). The cells were left standing at 4° C. for 1 hour. The cells were washed twice with PBS supplemented with 5% FBS, and then suspended by the addition of Anti-Rat IgG (whole molecule)-FITC antibody produced in rabbit (Sigma-Aldrich Co. LLC) that had been 50-fold diluted with PBS supplemented with 5% FBS. The cells were left standing at 4° C. for 1 hour. The cells were washed twice with PBS supplemented with 5% FBS, followed by detection using a flow cytometer (Canto II; BD Biosciences). The data was analyzed using FlowJo (TreeStar, Inc.). In the histograms of FIGS. 2-1 to 2-2, the abscissa depicts FITC fluorescence intensity indicating the amount of the antibody bound, and the ordinate depicts cell count. […] Fluorescence intensity is enhanced when the antibody binds to full-length hCDH6 or each EC domain deletion mutant on the surface of cells.

B1: rat anti-CDH6 monoclonal antibody rG019 (antibody, IgG2b, V domains shown)
VH: QVQLQQSGAELVKPGSSVKISCKASGYTFTRNFMHWIKQQPGNGLEWIGWIYCGDGETEYNQKFNGKATLTADRSSSTAYMELSRLTSEDSAVYFCARGVYGGFAGGYFDFWGQGVMVTVSS
VL: DIQMTQSPSLLSASVGDRVTLNCKASQNIYKNLAWYQQKLGEGPKLLIYDANTLQTGIPSRFSGSGSGSDFTLTISSLQPEDVATYFCQQYYSGWAFGGVTNLELKRA
notes: Rat antibody purified from hybridoma supernatant; also called rG019 antibody; clone rG019
On to B1, for which the binding result in test [1] was “binds”; in test [2], “no binding (tested: 20 nM)”.

Values taken from patent publication US20220016257A1 (Daiichi Sankyo, published 2022).
